Experimental data taken from patent US20050008642A1.

Biological target: IGF-IR on cells (HT29, NCI H322M human tumor cells; 3T3 cells transfected with IGF-IR) (human) (UniProt P08069)
Experiment: cell-based or functional assay

Substance: αIR3 (antibody)
- Akt/PKB phosphorylation in the absence of IGF-I (Western blot): > 5 nM
